Laboratory results: article doi:10.1101/2020.08.13.232140, “Assembly and symmetry of the fungal E3BP-containing core of the Pyruvate Dehydrogenase Complex” (bioRxiv, 2020)

Legend:
[1] = biological target: the molecule itself; experiment: cryo-EM structure; native PDC purified from N. crassa mitochondria; single-particle reconstructions under icosahedral and tetrahedral symmetry (classes X, Y, N)
[2] = biological target: the molecule itself; experiment: cryo-EM structure; reconstituted tE2+PX30 subcomplex of separately expressed components; icosahedral (map R1) and tetrahedral (maps R2X/Y) reconstructions
[3] = biological target: the molecule itself; experiment: cryo-EM structure; co-expressed tE2/PX261 subcomplex; reconstruction under icosahedral symmetry

B1: E2 of the native N. crassa pyruvate dehydrogenase complex (PDC core) (natural protein, UniProt P20285 29-458, looked up)
chain: ASYPPHTVVKMPALSPTMTSGGIGAWQKKPGDKIEPGEVLVEIETDKAQMDFEFQEEGVLAKILKDSGEKDVAVGNPIAILVEEGTDVNAFKDFTLKDAGGETSPAVPKDEPKNESTASAPTPAPTPAPEPENTSFTGRFQTALEREPNALPAAKRLAREKGIDLRNVKGSGPGGKITEEDVKKALASAPAAGAAAAAYTDVPISGMRKTIAARLKESVTENPHFFVSTNLSVSKLLKLRQALNSSADGRYKLSVNDFLIKAMGIASKRVPTVNSSWRDGVIRQFETVDVSVAVATPNGLITPIVKGVEGKGLESISAAVKELAKKARDGKLKPEEYQGGSISISNMGMNPAVQSFTAIINPPQAAILAVGAPQKVAVPVENEDGTTGVSWDEQIIVTASFDHKVVDGAVGAEWIRELKKVIENPLELLL
notes: E2 (acetyltransferase) component of the pyruvate dehydrogenase complex, Neurospora crassa, UniProt P20285; residues 232-458 identified in the native reconstruction; the recombinant E2 construct starts at residue 29; Strain WT STA74 / ATCC 14692; also called E2 core; source: endogenous, PDC purified from N. crassa mitochondria (sucrose cushion, sucrose gradient, SEC); copies: 60
stoichiometry N [1]: 60

B2: N. crassa E2 core-forming domain (tE2), separately expressed (domain or fragment, UniProt P20285 225-458, looked up)
chain: AAYTDVPISGMRKTIAARLKESVTENPHFFVSTNLSVSKLLKLRQALNSSADGRYKLSVNDFLIKAMGIASKRVPTVNSSWRDGVIRQFETVDVSVAVATPNGLITPIVKGVEGKGLESISAAVKELAKKARDGKLKPEEYQGGSISISNMGMNPAVQSFTAIINPPQAAILAVGAPQKVAVPVENEDGTTGVSWDEQIIVTASFDHKVVDGAVGAEWIRELKKVIENPLELLL
notes: E2 of the pyruvate dehydrogenase complex, Neurospora crassa, residues 225-458 of UniProt P20285 (core-forming catalytic domain); model built for 227-458; pRSET vector; the His6-tag is cleavable with thrombin; Icosahedral assembly; source: E. coli Rosetta2 (DE3), single expression
binding result [2]: binds

B3: untagged N. crassa E2 core-forming domain (tE2), co-expressed with PX constructs (domain or fragment, UniProt P20285 225-458, looked up)
chain: AAYTDVPISGMRKTIAARLKESVTENPHFFVSTNLSVSKLLKLRQALNSSADGRYKLSVNDFLIKAMGIASKRVPTVNSSWRDGVIRQFETVDVSVAVATPNGLITPIVKGVEGKGLESISAAVKELAKKARDGKLKPEEYQGGSISISNMGMNPAVQSFTAIINPPQAAILAVGAPQKVAVPVENEDGTTGVSWDEQIIVTASFDHKVVDGAVGAEWIRELKKVIENPLELLL
notes: E2 of the pyruvate dehydrogenase complex, Neurospora crassa, residues 225-458 of UniProt P20285 (core-forming catalytic domain); petDuet dual-expression vectors were built with the single-expression genes as template; PX stood in the His-tagged MCS1, tE2 untagged; also called untagged E2 core-forming domain; PDC core; source: E. coli Rosetta2 (DE3), co-expressed with His-tagged PX from petDuet, …
binding result [3]: binds
